B1: CaMet2p (Candida albicans SC5314) (protein)
chain: MTYKDVTEEQLQTNPYVKLVPGQTIVEIPEYTLECGETLHNFPVAYKTWGKLNETADNALVICHALSGSSDVDDWWGELLGTDRAFDPSRYLIICINFLGSPYGSCSPVTIDKSTGKPYGPSFPLVTFKDDVGIQRLILDSLNVKRLAAVVGGSMGGMLALEYSAIYNNTGYVQKVVALATAARTSAWCISWNETQRQCIFSDPFYDDGYYYETGNKPDSGLSAARMAALLTYRSRNSFESRFGRKLGPRSPNDGGASPRTKHEEHSLLHNDGSKLINGAPVNEKYPPTYFSAQSYMRYNGSKFINRFDANCYIAISRKLDTNDLSRGRVNAPNDANGDPLVHVLKDLSTPTLVIGIESDHLFTITEQKLLADNIPNAIFETLDSEEGHDAFLLEFEKINSFITSFLNN
notes: E. coli BL21 Star (DE3); dimer only in model
B2: CaMet2NHp (Candida albicans SC5314) (protein)
chain: B1 chain
notes: full length with N-terminal oligo-His tag (kept), ~45 kDa; E. coli Rosetta (DE3) pLysS; dimer only in model

What was measured:
CaMet2NHp [1] = target: T1, CaMet2NHp (Candida albicans, UniProt Q5A948); test: inhibition, DTNB end-point assay of CoA formed, […] nm; type: biochemical
T1 construct: gene MET2; full length with N-terminal oligo-His tag (kept), ~45 kDa; E. coli Rosetta (DE3) pLysS; dimer only in model
T1 sequence (Q5A948 1-409): B1 chain

CaMet2NHp [2] = target: T1, CaMet2NHp; test: as above; type: biochemical; settings: read-out: % inhibition at 25 mM
purified protein [3] = substrate: CC(=O)SCCNC(=O)CCNC(=O)[C@H](O)C(C)(C)COP(=O)(O)OP(=O)(O)OC[C@H]1O[C@@H](n2cnc3c(N)ncnc32)[C@H](O)[C@@H]1OP(=O)(O)O; test: purified protein; type: biochemical, Candida albicans; settings: 10 mM L-Hom, pH 8.0 phosphate, 100 mM NaCl, 1 mM EDTA, 37 °C
purified protein [4] = substrate: N[C@@H](CCO)C(=O)O; test: purified protein; type: biochemical, Candida albicans; settings: 3.5 mM AcCoA, pH 8.0 phosphate, 100 mM NaCl, 1 mM EDTA, 37 °C

Molecule | IC50 (CaMet2NHp [1]) | inhibition at 25000 µM (CaMet2NHp [2]) | Km (purified protein [3]) | Vmax (purified protein [3]) | kcat (purified protein [3]) | kcat/Km (purified protein [3]) | Km (purified protein [4]) | Vmax (purified protein [4]) | kcat (purified protein [4]) | kcat/Km (purified protein [4])
CC(C)(S)[C@@H](N)C(=O)O [D-Pen] | ~2000 µM |  |  |  |  |  |  |  |  | 
CSCC[C@H](N)C(=O)O [L-Met] |  | 17% |  |  |  |  |  |  |  | 
CC(C)(S)[C@H](N)C(=O)O [L-Pen] | ~2000 µM |  |  |  |  |  |  |  |  | 
B1 |  |  | 906 ± 119 µM | 20.1 µmol/min/mg | 15.2 ± 0.572 s⁻¹ | 16800 M⁻¹ s⁻¹ | 405 ± 50 µM | 17.1 µmol/min/mg | 13 ± 0.405 s⁻¹ | 32100 M⁻¹ s⁻¹
B2 |  |  | 1130 ± 150 µM | 19.8 µmol/min/mg | 15 ± 0.635 s⁻¹ | 13300 M⁻¹ s⁻¹ | 578 ± 118 µM | 17.2 µmol/min/mg | 13.1 ± 0.723 s⁻¹ | 22700 M⁻¹ s⁻¹
